In paper PMC5422739, “Leptospira Immunoglobulin-Like Protein B Interacts with the 20th Exon of Human Tropoelastin Contributing to Leptospiral Adhesion to Human Lung Cells” (Frontiers in Cellular and Infection Microbiology, 2017):

Assays:
Details in all cases: both partners purified
[1] = target: T1, tag free LigB12 (amino acids 1,047–1,119 in LigB) (L. interrogans serovar Pomona); assay: SPR; Biacore 3000; tag free LigB12 immobilised on CM5 (about 1,000 RU); HTE truncates 0 to 5 μM injected in PBS at 30 μL/min, 25°C; 1:1 Langmuir model
T1 construct: LigB, 12th Ig-like domain, amino acids 1,047–1,119 in LigB; from pET28-SUMO; also called wild-type LigB12; LigB12 WT; source: E. coli Rosetta, purified (Ni-NTA, Ulp-1 digestion, second Ni-NTA, size exclusion)

[2] = target: T2, GST tagged LigB4 (amino acids 307–403 in LigB) (L. interrogans serovar Pomona); assay: ELISA; HTE17-20, HTE20, HTE20N, HTE20C or BSA coated (1 μM/well); GST tagged LigB4 or LigB12 titrated 0 to 10 μM, 1 h at 37°C; HRP anti-GST; KD from a saturation fit of OD630
T2 construct: Leptospira immunoglobulin-like protein B (LigB), 4th Ig-like domain, amino acids 307–403 in LigB; constructed into pGEX-6P-1 and pGEX-4T-2; also called GST-LigB4; 4th domain of LigB; source: E. coli Rosetta, purified (glutathione agarose)

[3] = target: T3, GST tagged LigB12 (amino acids 1,047–1,119 in LigB) (L. interrogans serovar Pomona); assay: as above
T3 construct: LigB, 12th Ig-like domain, amino acids 1,047–1,119 in LigB; constructed into pGEX-6P-1 and pGEX-4T-2; also called GST-LigB12; 12th domain of LigB; source: E. coli Rosetta, purified (glutathione agarose)

B1: HTE17-20 (17th to 20th exon of human tropoelastin) (domain or fragment)
chain: GVGTPAAAAAAAAAAKAAKYGAAAGLVPGGPGFGPGVVGVPGAGVPGVGVPGAGIPVVPGAGIPGAAVPGVVSPEAAAKAAAKAAKYGARPGVGVGGIPTYGVGAGGFPGFGVGVGGIPGVAGVPGVGGVPGVGGVPGVGIS
Work on B1 yielded a Kd [1] of 850 nM, a koff [1] of 0.0011 s⁻¹ and a kon [1] of 1300 M⁻¹ s⁻¹. The Kd [2] was 780 nM and the Kd [3] was 780 nM.
